Reference: PMC5526994 (Nature Communications, 2017)

B1: TBP (159-339) (domain or fragment, human, UniProt P20226 159-339, looked up)
chain: SGIVPQLQNIVSTVNLGCKLDLKTIALRARNAEYNPKRFAAVIMRIREPRTTALIFSSGKMVCTGAKSEEQSRLAARKYARVVQKLGFPAKFLDFKIQNMVGSCDVKFPIRLEGLVLTHQQFSSYEPELFPGLIYRMIKPRIVLLIFVSGKVVLTGAKVRAEIYEAFENIYPILKGFRKTT
notes: source: E. coli Rosetta (DE3)pLysS, purified (HisTrap, heparin, 3C cleavage, SEC)
B2: U6 promoter crystallization DNA (dsDNA)
DNA 1: TTGAAGGGCTTAAAATAGGTGTGAC
DNA 2: GGTCACACCTATTTTAAGCCCTTCAAC
B3: U6_2 TATA EMSA probe (dsDNA)
DNA 1: ATTTGATTGAAGGGCTTAAAATAGGTGTGACAGTAACC
DNA 2: GGTTACTGTCACACCTATTTTAAGCCCTTCAATCAAAT
B4: Bdp1SANT, human Bdp1 extended SANT domain (residues 241-396), affinity tag removed for crystallization (domain or fragment, UniProt A6H8Y1 241-396, looked up)
chain: GPLLVPRVKVAEDGSIILDEESLTVEVLRTKGPCVVEENDPIFERGSTTTYSSFRKNYYSKPWSNKETDMFFLAISMVGTDFSMIGQLFPHRARIEIKNKFKREEKTNGWRIDKAFQEKRPFDFDFFAHLLQKVLAEEEKRKQKSVKNHSLKEKKS
notes: Bdp1, human, extended SANT domain, residues 241-396; residues 286-382 are built in the electron density; Cloned into pOPINF (cleavable N-terminal His-tag); tag removed with 3C protease for crystallization; source: E. coli BL21-CodonPlus (DE3)-RIL, purified (Ni-NTA, 3C cleavage, heparin, SEC); not shown: His tag, N-terminal, cleaved
B5: Bdp1SANT, human Bdp1 extended SANT domain (residues 241-396), His-tagged (domain or fragment, UniProt A6H8Y1 241-396, looked up)
chain: B4 chain
notes: Bdp1, human, extended SANT domain, residues 241-396; The tag is kept in the pull-down (held on His SpinTrap); it tells of cleavage only for crystallization; source: E. coli BL21-CodonPlus (DE3)-RIL, purified (Ni-NTA, heparin, SEC); not shown: His tag, N-terminal, kept
B6: U6_2 PSE probe (dsDNA)
DNA 1: CCATAAGTTATCCTAACCAAAAGATGATTTGA
DNA 2: TCAAATCATCTTTTGGTTAGGATAACTTATGG
B7: U6 snRNA promoter smFRET DNA (dsDNA)
DNA 1: CGGACCAAGATGATTTGATTGAAGGGCTTAAAATAGGTGTGAGAGTAACCCTTGA
DNA 2: TCAAGGGTTACTCTCACACCTATTTTAAGCCCTTCAATCAAATCATCTTGGTCCG

Experiments:
[1] = molecular target: T1, Brf2 (62-419) (human, UniProt Q9HAW0 62-419); assay: crystal structure; Brf2 (62-419), TBP (159-339) and Bdp1SANT with 25 bp of the human U6 promoter; complex at 60 uM, equimolar TBP and Brf2, 1.1 molar excess of Bdp1SANT, 1.2 excess of dsDNA; hanging drop, PEG 8000, KCl, MES pH 6.5, MgCl2; 2.7 Å; settings: both partners purified
T1 construct: Brf2 (TFIIB-related factor II), human, residues 62-419; also called TFIIB-related factor II; source: E. coli Rosetta (DE3)pLysS, co-expressed with TBP, purified in isolation (HisTrap, heparin, 3C cleavage, SEC); not shown: His tag, N-terminal, cleaved

[2] = molecular target: T2, TBP (core);Brf2 (62-419);Bdp1SANT (Homo sapiens;Homo sapiens;Homo sapiens, UniProt P20226;Q9HAW0;A6H8Y1 159-339;62-419;241-396, ||); assay: X-ray crystallography; 2.7 A; EMSA: 500 mM ammonium acetate, 50 mM HEPES pH 7.9, 10% glycerol, 1 mM TCEP, 21 °C 20 min, diluted twofold (100 mM ammonium acetate, 40% glycerol) before loading; SNAPc EMSA: 500 mM NaCl, 50 mM HEPES pH 7.9, 20% glycerol, 1 mM TCEP, 21 °C; smFRET lifetimes: T78 buffer, 1 mM DTT, room temperature; settings: protein: recombinant;recombinant;recombinant; tags: His-tag cleaved (3C);N-terminal His-tag cleaved (3C);N-terminal His, cleavable; cleaved for crystallization; copies: 1;1;1; 25 bp; template strand S1 has 1 nt 5' and 1 nt 3' overhang
[3] = molecular target: T2, TBP (core);Brf2 (62-419);Bdp1SANT; assay: EMSA; similar affinity to longer Bdp1 constructs; EMSA: 500 mM ammonium acetate, 50 mM HEPES pH 7.9, 10% glycerol, 1 mM TCEP, 21 °C 20 min, diluted twofold (100 mM ammonium acetate, 40% glycerol) before loading; SNAPc EMSA: 500 mM NaCl, 50 mM HEPES pH 7.9, 20% glycerol, 1 mM TCEP, 21 °C; smFRET lifetimes: T78 buffer, 1 mM DTT, room temperature; settings: protein: recombinant;recombinant;recombinant; tags: His-tag cleaved (3C);N-terminal His-tag cleaved (3C);N-terminal His, cleavable; cleaved for crystallization; copies: 1;1;1; label: 5' Cy5 on strand 1; blunt
[4] = molecular target: T3, TBP (core);Brf2 (62-419) (Homo sapiens;Homo sapiens, UniProt P20226;Q9HAW0 159-339;62-419, |); assay: competition; 0-200x unlabelled same-sequence DNA; less stable than with Bdp1SANT; EMSA: 500 mM ammonium acetate, 50 mM HEPES pH 7.9, 10% glycerol, 1 mM TCEP, 21 °C 20 min, diluted twofold (100 mM ammonium acetate, 40% glycerol) before loading; SNAPc EMSA: 500 mM NaCl, 50 mM HEPES pH 7.9, 20% glycerol, 1 mM TCEP, 21 °C; smFRET lifetimes: T78 buffer, 1 mM DTT, room temperature; settings: protein: recombinant;recombinant; tags: His-tag cleaved (3C);N-terminal His-tag cleaved (3C); copies: 1;1; label: 5' Cy5 on strand 1; blunt
[5] = molecular target: B1; assay: crystal structure; Brf2 (62-419), TBP (159-339) and Bdp1SANT with 25 bp of the human U6 promoter; complex at 60 uM, equimolar TBP and Brf2, 1.1 molar excess of Bdp1SANT, 1.2 excess of dsDNA; hanging drop, PEG 8000, KCl, MES pH 6.5, MgCl2; 2.7 Å; settings: both partners purified
[6] = molecular target: T4, Brf2–TBP complex on U6 promoter DNA (Brf2–TBP–DNA complex) (human, UniProt Q9HAW0 62-419; P20226 159-339); assay: as above; settings: both partners purified
T4 construct: Brf2 (TFIIB-related factor II), human, residues 62-419; The complex stands on double-stranded U6 promoter DNA in every experiment (Cy5-labelled U6_2 38-mer in EMSA; 25 bp fragment with overhangs in the crystal); Bdp1 also contacts the DNA; also called TBP–Brf2; source: E. coli Rosetta (DE3)pLysS, each protein purified, assembled with double-stranded U6 promoter DNA; not shown: His tag, …

[7] = molecular target: T4, Brf2–TBP complex on U6 promoter DNA …; assay: native gel or EMSA; 1.5 pmol Cy5-labelled U6_2 dsDNA, 5 pmol TBP (159-339), 7 pmol Brf2 (62-419), 10 pmol Bdp1 construct in 20 ul; 500 mM ammonium acetate, 50 mM HEPES pH 7.9, 10% glycerol, 1 mM TCEP; 21 °C, 20 min; 4.5% polyacrylamide gel; settings: both partners purified
[8] = molecular target: SNAPcΔ;Bdp1SANT (Homo sapiens?;Homo sapiens, UniProt Q5SXM2;Q92966;Q16533;O75971;A6H8Y1 1-516;1-411;1-368;1-98;241-396, |); assay: EMSA; Bdp1SANT not recruited to SNAPc-DNA; not loss of SNAPc-DNA binding; EMSA: 500 mM ammonium acetate, 50 mM HEPES pH 7.9, 10% glycerol, 1 mM TCEP, 21 °C 20 min, diluted twofold (100 mM ammonium acetate, 40% glycerol) before loading; SNAPc EMSA: 500 mM NaCl, 50 mM HEPES pH 7.9, 20% glycerol, 1 mM TCEP, 21 °C; smFRET lifetimes: T78 buffer, 1 mM DTT, room temperature; settings: protein: recombinant;recombinant; tags: N-terminal Strep on SNAPc190Δ; His cleaved from SNAPc50;N-terminal His, cleavable; cleaved for crystallization; copies: 1;1;1;1;1; blunt
[9] = molecular target: SNAPcΔ;Bdp1-WT (Homo sapiens?;Homo sapiens, UniProt Q5SXM2;Q92966;Q16533;O75971;A6H8Y1 1-516;1-411;1-368;1-98;1-484, |); assay: EMSA; Bdp1 binding to SNAPc-DNA; EMSA: 500 mM ammonium acetate, 50 mM HEPES pH 7.9, 10% glycerol, 1 mM TCEP, 21 °C 20 min, diluted twofold (100 mM ammonium acetate, 40% glycerol) before loading; SNAPc EMSA: 500 mM NaCl, 50 mM HEPES pH 7.9, 20% glycerol, 1 mM TCEP, 21 °C; smFRET lifetimes: T78 buffer, 1 mM DTT, room temperature; settings: protein: recombinant;recombinant; tags: N-terminal Strep on SNAPc190Δ; His cleaved from SNAPc50;C-terminal His (uncleavable); copies: 1;1;1;1;1; blunt
[10] = molecular target: T2, TBP (core);Brf2 (62-419);Bdp1SANT; assay: smFRET; complex lifetime 547 ± 87 s (heparin trap); EMSA: 500 mM ammonium acetate, 50 mM HEPES pH 7.9, 10% glycerol, 1 mM TCEP, 21 °C 20 min, diluted twofold (100 mM ammonium acetate, 40% glycerol) before loading; SNAPc EMSA: 500 mM NaCl, 50 mM HEPES pH 7.9, 20% glycerol, 1 mM TCEP, 21 °C; smFRET lifetimes: T78 buffer, 1 mM DTT, room temperature; settings: protein: recombinant;recombinant;recombinant; tags: His-tag cleaved (3C);N-terminal His-tag cleaved (3C);N-terminal His, cleavable; cleaved for crystallization; copies: 1;1;1; label: internal ATTO 532 donor and ATTO 647N acceptor; immobilized in TIRF assay; blunt
[11] = molecular target: TBP (core) (Homo sapiens, UniProt P20226 159-339); assay: smFRET; 10 nM TBP; complex lifetime 0.29 s; EMSA: 500 mM ammonium acetate, 50 mM HEPES pH 7.9, 10% glycerol, 1 mM TCEP, 21 °C 20 min, diluted twofold (100 mM ammonium acetate, 40% glycerol) before loading; SNAPc EMSA: 500 mM NaCl, 50 mM HEPES pH 7.9, 20% glycerol, 1 mM TCEP, 21 °C; smFRET lifetimes: T78 buffer, 1 mM DTT, room temperature; settings: protein: recombinant; tags: His-tag cleaved (3C); label: internal ATTO 532 donor and ATTO 647N acceptor; immobilized in TIRF assay; blunt
[12] = molecular target: T3, TBP (core);Brf2 (62-419); assay: smFRET; complex lifetime 381 ± 33 s (heparin trap); EMSA: 500 mM ammonium acetate, 50 mM HEPES pH 7.9, 10% glycerol, 1 mM TCEP, 21 °C 20 min, diluted twofold (100 mM ammonium acetate, 40% glycerol) before loading; SNAPc EMSA: 500 mM NaCl, 50 mM HEPES pH 7.9, 20% glycerol, 1 mM TCEP, 21 °C; smFRET lifetimes: T78 buffer, 1 mM DTT, room temperature; settings: protein: recombinant;recombinant; tags: His-tag cleaved (3C);N-terminal His-tag cleaved (3C); copies: 1;1; label: internal ATTO 532 donor and ATTO 647N acceptor; immobilized in TIRF assay; blunt

T2 sequence (Q9HAW0 62-419, one chain of several): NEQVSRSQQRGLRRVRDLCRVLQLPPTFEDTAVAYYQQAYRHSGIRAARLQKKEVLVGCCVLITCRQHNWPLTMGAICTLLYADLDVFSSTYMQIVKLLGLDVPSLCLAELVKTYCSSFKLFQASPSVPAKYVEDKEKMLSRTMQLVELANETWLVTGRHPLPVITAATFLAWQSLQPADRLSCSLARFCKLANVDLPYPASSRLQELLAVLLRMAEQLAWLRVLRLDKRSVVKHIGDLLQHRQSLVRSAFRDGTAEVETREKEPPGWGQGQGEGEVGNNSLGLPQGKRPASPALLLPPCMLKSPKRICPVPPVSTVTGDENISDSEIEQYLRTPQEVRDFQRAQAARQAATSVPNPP
T1 sequence (Q9HAW0 62-419): as the sequence (Q9HAW0 62-419, one chain of several) above
T3 sequence (Q9HAW0 62-419, one chain of several): as above
T4 sequence (Q9HAW0 62-419, one chain of several): as above
Sequence of SNAPcΔ;Bdp1SANT (Q5SXM2 1-516, stated change not applied, chain 1 of 4): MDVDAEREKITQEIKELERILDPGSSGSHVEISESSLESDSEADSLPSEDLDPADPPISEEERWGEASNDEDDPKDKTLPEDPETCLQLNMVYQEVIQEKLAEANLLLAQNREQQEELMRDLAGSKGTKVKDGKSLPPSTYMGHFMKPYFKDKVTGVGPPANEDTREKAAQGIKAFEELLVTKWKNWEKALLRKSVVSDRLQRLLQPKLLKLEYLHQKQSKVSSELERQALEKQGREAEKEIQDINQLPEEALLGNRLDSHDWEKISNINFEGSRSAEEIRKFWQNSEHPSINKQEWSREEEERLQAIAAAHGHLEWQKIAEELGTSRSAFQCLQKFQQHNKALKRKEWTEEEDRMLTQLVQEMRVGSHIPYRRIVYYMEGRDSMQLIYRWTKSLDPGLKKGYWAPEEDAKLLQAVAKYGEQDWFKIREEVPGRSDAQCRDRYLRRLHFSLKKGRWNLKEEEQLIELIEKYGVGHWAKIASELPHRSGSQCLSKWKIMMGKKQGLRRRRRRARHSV
Sequence of SNAPcΔ;Bdp1SANT (Q92966 whole entry, stated change not applied, chain 2 of 4): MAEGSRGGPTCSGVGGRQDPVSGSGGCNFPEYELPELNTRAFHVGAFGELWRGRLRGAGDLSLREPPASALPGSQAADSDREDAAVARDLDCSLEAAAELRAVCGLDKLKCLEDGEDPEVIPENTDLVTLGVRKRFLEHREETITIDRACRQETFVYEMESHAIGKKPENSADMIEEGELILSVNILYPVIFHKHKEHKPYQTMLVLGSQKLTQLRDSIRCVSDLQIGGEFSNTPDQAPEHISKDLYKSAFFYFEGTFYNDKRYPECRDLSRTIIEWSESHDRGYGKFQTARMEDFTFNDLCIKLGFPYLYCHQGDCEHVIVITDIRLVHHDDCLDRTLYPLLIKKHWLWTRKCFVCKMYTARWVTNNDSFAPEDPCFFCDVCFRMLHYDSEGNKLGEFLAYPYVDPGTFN
Sequence of SNAPcΔ;Bdp1SANT (Q16533 whole entry, stated change not applied, chain 3 of 4): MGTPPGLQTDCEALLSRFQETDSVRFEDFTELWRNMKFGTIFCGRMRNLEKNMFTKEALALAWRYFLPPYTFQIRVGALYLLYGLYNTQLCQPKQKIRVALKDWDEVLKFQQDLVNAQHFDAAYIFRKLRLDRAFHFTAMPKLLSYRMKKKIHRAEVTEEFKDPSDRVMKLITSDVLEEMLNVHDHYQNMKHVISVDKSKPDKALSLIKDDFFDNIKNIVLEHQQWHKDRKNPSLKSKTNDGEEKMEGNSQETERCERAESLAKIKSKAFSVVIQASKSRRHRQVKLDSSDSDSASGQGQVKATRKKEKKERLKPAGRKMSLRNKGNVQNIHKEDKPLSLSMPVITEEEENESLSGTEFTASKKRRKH
Sequence of SNAPcΔ;Bdp1SANT (O75971 whole entry, stated change not applied, chain 4 of 4): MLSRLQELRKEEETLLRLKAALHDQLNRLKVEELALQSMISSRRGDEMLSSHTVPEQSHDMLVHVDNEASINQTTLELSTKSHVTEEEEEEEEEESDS

B1
binding result [1]: binds

B2
binding result [2]: binds

B3
binding result [3]: binds
binding result [4]: binds

B4
binding result [5]: binds
binding result [1]: binds
binding result [6]: binds

B5
binding result [7]: binds

B6
binding result [8]: no binding
binding result [9]: binds

B7
binding result [10]: binds
binding result [11]: binds
binding result [12]: binds
